The source of these data is PMC3098740 (Biochemistry, 2010).

This experiment deals with T1, Methyl-coenzyme M reductase (MCR) subunit α (Methanothermobacter marburgensis …, UniProt P11558 1-550).
T1 sequence (looked up): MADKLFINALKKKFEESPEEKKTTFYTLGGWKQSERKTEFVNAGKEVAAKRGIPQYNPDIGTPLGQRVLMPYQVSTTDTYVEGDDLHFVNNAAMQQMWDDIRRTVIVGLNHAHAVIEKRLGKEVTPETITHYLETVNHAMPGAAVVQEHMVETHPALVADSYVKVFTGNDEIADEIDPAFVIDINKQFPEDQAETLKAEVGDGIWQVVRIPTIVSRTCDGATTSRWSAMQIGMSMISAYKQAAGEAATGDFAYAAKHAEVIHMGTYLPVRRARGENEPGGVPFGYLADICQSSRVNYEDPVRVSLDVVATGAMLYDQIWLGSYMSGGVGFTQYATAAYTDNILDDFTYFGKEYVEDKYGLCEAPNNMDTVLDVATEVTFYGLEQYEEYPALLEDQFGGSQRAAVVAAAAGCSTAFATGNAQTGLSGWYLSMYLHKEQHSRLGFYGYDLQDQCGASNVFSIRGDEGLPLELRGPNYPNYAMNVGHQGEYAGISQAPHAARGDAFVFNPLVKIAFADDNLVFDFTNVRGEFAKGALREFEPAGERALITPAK
Briefly: crystal structure.

B1: Methyl-coenzyme M reductase (MCR) subunit β (natural protein, UniProt P11560 1-443, looked up)
chain: MAKFEDKVDLYDDRGNLVEEQVPLEALSPLRNPAIKSIVQGIKRTVAVNLEGIENALKTAKVGGPACKIMGRELDLDIVGNAESIAAAAKEMIQVTEDDDTNVELLGGGKRALVQVPSARFDVAAEYSAAPLVTATAFVQAIINEFDVSMYDANMVKAAVLGRYPQSVEYMGANIATMLDIPQKLEGPGYALRNIMVNHVVAATLKNTLQAAALSTILEQTAMFEMGDAVGAFERMHLLGLAYQGMNADNLVFDLVKANGKEGTVGSVIADLVERALEDGVIKVEKELTDYKVYGTDDLAMWNAYAAAGLMAATMVNQGAARAAQGVSSTLLYYNDLIEFETGLPSVDFGKVEGTAVGFSFFSHSIYGGGGPGIFNGNHIVTRHSKGFAIPCVAAAMALDAGTQMFSPEATSGLIKEVFSQVDEFREPLKYVVEAAAEIKNEI
On to B1, for which the binding result was “binds”.
